# Source: patent US20160068860A1, “TRANSGENIC PLANTS” (CONSEJO SUPERIOR DE INVESTIGACIONES CIENTIFICAS (CSIC), priority 2013, published 2016)
# Where a chain is given by its changes, count along the chain named. Names may count otherwise.
# T1: PP2CA (clade A protein phosphatase 2C, At3g11410) (Arabidopsis thaliana, UniProt P49598 1-399, limits assumed)
# T1 construct: BiFC: PP2CA-YFPN (pSPYNE-35S); also called AtPP2CA
# T1 sequence (looked up): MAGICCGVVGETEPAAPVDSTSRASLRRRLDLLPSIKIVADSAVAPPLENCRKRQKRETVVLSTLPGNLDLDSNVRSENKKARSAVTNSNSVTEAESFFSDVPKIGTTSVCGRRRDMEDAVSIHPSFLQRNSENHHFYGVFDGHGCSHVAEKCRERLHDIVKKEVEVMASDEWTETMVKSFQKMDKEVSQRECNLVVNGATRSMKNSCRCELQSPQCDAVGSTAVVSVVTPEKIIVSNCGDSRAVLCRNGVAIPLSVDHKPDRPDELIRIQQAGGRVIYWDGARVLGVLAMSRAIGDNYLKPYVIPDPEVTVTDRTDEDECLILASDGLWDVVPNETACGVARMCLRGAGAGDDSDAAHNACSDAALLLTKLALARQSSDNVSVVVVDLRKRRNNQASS
# B1: PYL4H82R V97A (AtPYL H82 and V97A) (receptor)
# chain: MLAVHRPSSAVSDGDSVQIPMMIASFQKRFPSLSRDSTAARFHTHEVGPNQCCSAVIQEISAPISTVWSVVRRFDNPQAYKRFLKSCSVIGGDGDNAGSLRQVHVVSGLPAASSTERLDILDDERHVISFSVVGGDHRLSNYRSVTTLHPSPISGTVVVESYVVDVPPGNTKEETCDFVDVIVRCNLQSLAKIAENTAAESKKKMSL
# notes: also called PYL4H82R (found combined with V97A)
# B2: PYL4A194T: AtPYL4 ABA receptor mutant polypeptide with A194T substitution (SEQ ID NO. 60; nucleic acid SEQ ID NO: 55); also over-expressed in plants (protein, listed as Arabidopsis thaliana)
# chain: B1 chain with R82H, A97V, A194T
# How the values were obtained:
# [1] = target: T1, PP2CA (clade A protein phosphatase 2C, …); assay: yeast two-hybrid growth assay, absence of ABA; H82R was found combined with V97A
# PP2CA [2] = assay: In vitro phosphatase activity assay with pNPP substrate, PP2CA; assay type: biochemical, Arabidopsis; details: absence of ABA
# Experimental: (§1) Phosphatase activity was measured using as a substrate either pNPP or phosphorylated ΔC-ABF2, ΔC-ABI5 and SLAC11-186 proteins. For the pNPP substrate, assays were performed in a 100 μl solution containing 25 mM Tris-HCl pH 7.5, 2 mM MnCl2 and 5 mM pNPP. Assays contained 2 μM phosphatase (PP2CA or HAB1), 4 μM receptor and the indicated concentrations of ABA. Phosphatase activity was recorded with a ViktorX5 reader at 405 nm every 60 seconds over 30 minutes and the activity obtained after 30 minutes is indicated in the graphics. In order to obtain phosphorylated ΔCABF2, ΔC-ABI5 and SLAC11-186 proteins, OST1 phosphorylation assays were done basically as described previously (Dupeux et al., 2011 b). ΔC-ABF2 and SLAC11-186 N-terminal fragments were prepared as described (Antoni et al., 2012; Vahisalu et al., 2010). ΔC-ABI5 recombinant protein (amino acid residues 1-200, containing the C1, C2 and C3 target sites of ABA-activated SnRK2s) was expressed in the pETM11 vector as described above. The reaction mixture containing the OST1 kinase and either ΔCABF2, ΔC-ABI5 or SLAC11-186 recombinant proteins were incubated for 50 min at room temperature in 30 μl of kinase buffer: 20 mM Tris-HCl pH 7.8, 20 mM MgCl2, 2 mM MnCl2, and 3.5 μCi of γ-32ATP (3000 Ci/mmol). Thus, OST1 was autophosphorylated and in turn it phosphorylated ΔC-ABF2, ΔC-ABI5 and SLAC11-186 proteins. Next, they were used as substrates of PP2CA that was preincubated (or not) for 10 with PYL4 or PYL4A194T (1:10 phosphatase:receptor ratio) either in the absence or presence of 30 μM ABA. The reaction was stopped by adding Laemmli buffer and the proteins were separated by SDS-PAGE using an 8% acrylamide gel and transferred to an Immobilon-P membrane (Millipore). Radioactivity was detected and quantified using a Phosphorimage system (FLA5100, Fujifilm). After scanning, the same membrane was used for Ponceau staining. The data presented are averages of at least three independent experiments.
# RD29B = assay: Quantitative RT-PCR of ABA-responsive gene RD29B in OE plants; assay type: in vivo, Arabidopsis thaliana
# Experimental: ABA treatment, RNA extraction and quantitative RT-PCR amplifications were performed as previously described (Saez et al., 2004).
# PP2CA [3] = target: PP2CA (Arabidopsis thaliana, UniProt O80920+P49598, A194T); assay: In vitro reconstitution: PP2CA-mediated dephosphorylation of OST1, ΔC-ABF2, ΔC-ABI5, SLAC1 1-186; assay type: biochemical; design: made in house; host or cells: E. coli BL21 (DE3)
# Experimental: as §1, with “Next, they were used as substrates of PP2CA that was preincubated (or not) for 10 with PYL4 or PYL4A194T (1:10 phosphatase:receptor ratio) either in the absence or presence of 30 μM ABA.” left out
# [4] = 30 μM ABA, 1:10 phosphatase:receptor
# Sequence of PP2CA (Arabidopsis thaliana, UniProt O80920+P49598, A194T) (O80920 whole entry A194T, one chain of several): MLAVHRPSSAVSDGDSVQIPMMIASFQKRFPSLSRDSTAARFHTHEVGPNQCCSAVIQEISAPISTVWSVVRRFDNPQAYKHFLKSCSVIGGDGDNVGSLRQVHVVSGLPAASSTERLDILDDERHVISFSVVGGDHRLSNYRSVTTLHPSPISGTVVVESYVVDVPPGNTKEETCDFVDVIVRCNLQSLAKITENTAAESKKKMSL
molecule,measurement,setting,value
B1,binding result,[1],binds
same,effect on PP2CA activity,PP2CA [2],did not affect PP2CA activity
B2,induction of RD29B after ABA-treatment,RD29B; 10 μM ABA for 3 h,not higher than in non-transformed plants
same,expression of RD29B up-regulated compared to non-transformed plants,RD29B; absence of exogenous ABA treatment,23 fold
same,inhibition of dephosphorylation by PP2CA of ΔC-ABI5 and SLAC1 1-186,PP2CA [3]; [4],inhibited better than PYL4
same,inhibition of dephosphorylation of ΔC-ABF2,PP2CA [3]; [4],not more effective than PYL4
same,"inhibition of dephosphorylation of ΔC-ABF2, ΔC-ABI5 and SLAC1 1-186, better than PYL4","PP2CA [3]; 0.5-1 μM ABA, 1:1 phosphatase:receptor ratio",2-3 fold
same,"inhibition of dephosphorylation of PP2CA targets, difference to PYL4","PP2CA [3]; absence of ABA, 1:10 phosphatase:receptor",did not find significant differences
same,protection of OST1 phosphorylation compared to PYL4,"PP2CA [3]; low ABA concentrations, 1:1 phosphatase:receptor ratio",improved
